Assay results published in PMC6614843, “Stability and sub-cellular localization of DNA polymerase β is regulated by interactions with NQO1 and XRCC1 in response to oxidative stress” (Nucleic Acids Research, 2019).

What was measured:
[1] = target: Polβ(WT), purified recombinant (human, UniProt P06746 1-335); experiment: SPR; OpenSPR localized SPR (Nicoya); Polβ(WT) or Polβ(T304I) covalently coupled (EDC/NHS) to a carboxyl sensor; XRCC1 injected at 10, 100 nM, 1, 2, 5 and 10 μM; 25 mM HEPES pH 8.0, 150 mM NaCl, 200 mM MgCl2, 0.1% Tween 20, 1 mM TCEP; KD from response versus concentration (affinity model); details: both partners purified
[2] = target: Polβ(T304I), purified recombinant (human, UniProt P06746 1-335, T304I); experiment: as above; details: both partners purified

binding result [1]: binds
mean fold decrease of binding affinity (KD) against Polβ(WT) [2]: 6.18 fold
B1: NTD-XRCC1(1-151)-His (domain or fragment)
chain: MPEIRLRHVVSCSSQDSTHCAENLLKADTYRKWRAAKAGEKTISVVLQLEKEEQIHSVDIGNDGSAFVEVLVGSSAGGAGEQDYEVLLVTSSFMSPSESRSGSNPNRVRMFGPDKLVRAAAEKRWDRVKIVCSQPYSKDSPFGLSFVRFHS
notes: N-terminal domain of XRCC1, residues 1-151; human by the plasmid's name (hXRCC1); The name puts the His tag after the fragment; also called N-terminal fragment of XRCC1
